In patent US9850293B2, “Targeting trastuzumab-resistant HER2+ breast cancer with a HER3-targeting nanoparticle” (priority 2014, dated 2017):
Entries after “also recorded” stand apart in the source; their conditions may differ.

Tests used:
T47D = test: Cytotoxicity on cell lines (HerDox dose curves); assay type: cell-based, human; details: concentration yielding 50% reduction in cell survival, mean ± SD
[1] = tested on: GFP(+) MDA-MB-231 (HER2−); test: Targeting in a mixed cell culture; assay type: cell-based, human; details: 0.5 μM Dox, day 2
Description: (§1) FIG. 9 (A) illustrates targeting in a mixed cell culture.
(§2) FIG. 9 (B) further illustrates targeting in a mixed cell culture. Cell survival was determined by calculating the relative doubling time (DT) of experimental (exp) cells normalized by control (con) cells based on the crystal violet stains (total cells) and GFP fluorescence (MDA-MB-231 cells). The DT of MDA-MB-435 was determined by subtracting the DT of MDA-MB-231 from the total cell DT. Relative survival is shown for Day 2 of treatment.
(§3) By three days, HerDox reduced HER2+ cell numbers by over 75% whereas HER2− cell survival was unaffected (FIG. 7). […] These findings emphasize the importance of targeting by showing that the untargeted drug affects nontarget (i.e. HER2−) cells. […] To test receptor targeting, the inventors used free heregulin ligand (Her or eHRG) as a competitive inhibitor. […] As a final in vitro challenge, the inventors tested whether HerDox induces toxicity specifically to HER2+ cells in a mixed culture of HER2+ and HER2− breast cancer cells. To do this, the inventors produced a HER2− cell line tagged with green fluorescent protein (GFP) for cell identification in the mixed culture (FIG. 9-A). […] Altogether, these findings indicate that HerDox has the capacity to preferentially target toxicity to HER2+ cells. […] In serum-containing media, no such loss from HerDox is detectable. […]

[2] = tested on: MDA-MB-435 (non-GFP, HER2+); test: Targeting in a mixed cell culture; assay type: cell-based, human; details: 0.5 μM Dox, day 2
Description: as §1, §2, §3

[3] = HerDox stability in serum-containing media; assay type: in vitro ADME; details: 10% fetal bovine serum media, 37° C.
Description: FIG. 6 (B) mimics extended exposure of HerDox to cells in culture medium. HerDox immobilized on Ni-NTA beads were incubated with bovine serum in DMEM for the indicated times at 37° C. before each sample was pelleted. […] Relative Dox release or retention in serum is expressed as normalized to control (corresponding sample lacking serum). N=3 per time point.
The inventors tested the stability of HerDox over 12 days under different storage temperatures: 40° C., room temperature, or 37° C. […] The inventors also examined HerDox stability in serum-containing media at 37° C. […] Dox retention in the conjugate was also assessed by eluting the conjugate from the beads at each time point.

[4] = tested on: HER2+ tumors (MDA-MB-435); test: In vivo tumor toxicity (tumor growth); set-up: species or system mouse; details: 0.004 mg/kg with respect to Dox, daily tail vein injections for 7 days
[5] = tested on: BT474 trastuzumab-resistant cells; test: Tumor cell killing in culture
Description: (§4) FIG. 21 depicts graph that show the results of the administration of HerDox on various cells. […] N=3. *=p<0.05 compared to parental. […] N=3.
(§5) N=3. *, p<0.05 compared to parental. […] N=3. […] Parental and resistant cell lines were treated with HerDox−/+HER3 blocking peptide (ErbB3 human; Prospec), and tested for cell survival 48 hours later. […] Treatments were compared to mock (saline)-treatment. […] N=3. *, p<0.05 compared to parental. […] N=3.
Parental cell lines were pre-treated with 0.5 mg/mL Tz for 24 hours before testing these cells for surface HER3 levels. […] Parental cell lines were pre-treated with 0.5 mg/mL Tz for 24 hours before testing these cells for HerPBK10 binding. […] SKBR3 Parental cells were treated with Tz at indicated concentrations (see upper X-axes) 4 and 24 hours before HerDox treatment and assayed for survival at 48-72 h after treatment. N=3. […] SK-474 Parental cells were treated with Tz at indicated concentrations (see upper X-axes) 4 and 24 hours before HerDox treatment and assayed for survival at 48-72 h after treatment. N=3. […] MDA-MB-435 non-resistant cells were treated with Tz at indicated concentrations (see upper X-axes) 4 and 24 hours before HerDox treatment and assayed for survival at 48-72 h after treatment. […] N=3. […] Tz-resistant cells were treated with Tz at indicated concentrations (see upper X-axes) 4 and 24 hours before HerDox treatment and assayed for survival at 48-72 h after treatment. N=3.
N=3. *, p<0.05 compared to parental. […] N=3. […] N=3. […] Tumor volumes were measured by calipers. […] Tumor volumes were measured by calipers. […]

[6] = tested on: SKBR3 trastuzumab-resistant cells; test: Tumor cell killing in culture; assay type: cell-based, human; details: 48-72 h after treatment
Description: as §4, §5
Each therapeutic was administered at concentration ranges previously established for eliciting therapeutic efficacy.
Each therapeutic was administered at concentration ranges previously established or known in the art for eliciting therapeutic efficacy.

MDA-MB-435 cells = test: Trastuzumab pre-treatment before HerDox, cell survival; assay type: cell-based, human; details: MDA-MB-435, 24 h pre-treatment
Excerpt: N=3. […] N=3. […] N=3. […] N=3. […] N=3. […] N=3.

B1: HerDox: non-covalent complex of HerPBK10, double-stranded oligonucleotide and intercalated Dox (Unit A+Unit B+Unit C) (conjugate)
chain: SHLVKCAEKEKTFCVNGGECFMVKDLSNPSRYLCKCQPGFTGARCTENVPMKVQNQEKAEELYQKMRRAAMYEEGPPPSYESVVSAAPVAAALGSPFDAPLDPPFVPPRYLRPTGGRNSIRYSELAPLFDTTRVYLVDNKSTDVASLNYQNDHSNFLTTVIQNNDYSPGEASTQTINLDDRSHWGGDLKTILHTNMPNVNEFMFTNKFKARVMVSRLPTKDNQVELKYEWVEFTLPEGNYSETMTIDLMNNAIVEHYLKVGRQNGVLESDIGVKFDTRNFRLGFDPVTGLVMPGVYTNEAFHPDIILLPGCGVDFTHSRLSNLLGIRKRQPFQEGFRITYDDLEGGNIPALLDVDAYQASLKDDTEQGGGGAGGSNSSGSGAEENSNAAAAAMQPVEDMNDHAIRGDTFATRAEEKRAEAEAAAEAAAPAAQPEVEKPQKKPVIKPLTEDSKKRSYNLISNDSTFTQYRSWYLAYNYGDPQTGIRSWTLLCTPDVTCGSEQVYWSLPDMMQDPVTFRSTRQISNFPVVGAELLPVHSKSFYNDQAVYSQLIRQFTSLTHVFNRFPENQILARPPAPTITTVSENVPALTDHGTLPLRNSIGGVQRVTITDARRRTCPYVYKALGIVSPRVLSSRTFKKKKKKKKKK
modifications: left off: small tags and cut ends
T47D
  EC50: 0.64 ± 0.04 µM
[1]
  GFP (HER2−) cell growth in mixed culture: not altered
[2]
  non-GFP (HER2+) cell proliferation in mixed culture: nearly completely reduced
[3]
  Dox release from conjugate in serum: no significant release of Dox
[3]; each time point
  Dox retention by conjugate in serum: completely retained
[4]
  effect on tumor growth: essentially prevented tumor growth
[5]; 48-72 h after treatment
  effect on BT474 resistant cells: completely killed off; also recorded: complete cell death at all HerDox concentrations tested; also recorded: effectively eliminated
[5]; Tz-resistant BT474
  cytotoxicity at five-fold lower HerDox concentrations with trastuzumab pre-treatment: further enhanced cytotoxicity
  effect on cell survival at five-fold lower HerDox concentrations: still had a potent effect on cell survival
[6]
  cell death: > 80%
MDA-MB-435 cells
  enhancement of HerDox toxicity by trastuzumab pre-treatment: modest enhancement in toxicity
